Assays:
Experiment in all cases: GroEL-490 bead column capture of denatured serum, ATP elution, LC-MS-MS
[1] = biological target: complement component 4 binding protein, alpha (Homo sapiens) (UniProt P04003)
[2] = biological target: similar to KIAA1074 protein (Homo sapiens) (UniProt Q9UPS8)
[3] = biological target: UDP glycosyltransferase 1 family, polypeptide A9 (Homo sapiens) (UniProt O60656)
[4] = biological target: Rho GTPase activating protein 5 (Homo sapiens) (UniProt Q13017)
[5] = biological target: angiomotin like 2 (Homo sapiens) (UniProt Q9Y2J4)
[6] = biological target: phosphoinositide-specific phospholipase C beta 1 isoform a (UniProt Q9NQ66)
[7] = biological target: similar to zinc finger, CW-type with PWWP domain 1 (Homo sapiens)
[8] = biological target: apolipoprotein A-I precursor (Homo sapiens) (UniProt P02647)
[9] = biological target: SMC5 protein (Homo sapiens) (UniProt Q8IY18)
[10] = biological target: hematopoletic protein 1 (Homo sapiens) (UniProt P55160)
[11] = biological target: NYD-SP11 protein (Homo sapiens)
[12] = biological target: alpha 2 macroglobulin precursor (Homo sapiens) (UniProt P01023)
[13] = biological target: LUC7-liKe 2 (Homo sapiens) (UniProt Q9Y383)
[14] = biological target: very large G-protein coupled receptor 1 (Homo sapiens) (UniProt Q8WXG9)
[15] = biological target: complement component 3 precursor (Homo sapiens) (UniProt P01024)
[16] = biological target: retinoblastoma binding protein 8 isoform b (Homo sapiens) (UniProt Q99708)
[17] = biological target: synovial sarcoma, X breakpoint 2 isoform a (Homo sapiens) (UniProt Q16385)
hemopexin (Homo sapiens) = hemopexin (Homo sapiens) (UniProt P02790)
[18] = biological target: hypothetical protein FLJ21439 (Homo sapiens)
[19] = biological target: serine (or cysteine) proteinase inhibitor, clade A (alpha-1 antiproteinase, antitrypsin), member 1 (UniProt P01009)
[20] = biological target: stress 70 protein chaperone, microsome-associated, 60 kDa (Homo sapiens) (UniProt P48723)
stress 70 protein chaperone, microsome-associated, 60 kDa (Homo sapiens), sequence (P48723 23-471 limits assumed): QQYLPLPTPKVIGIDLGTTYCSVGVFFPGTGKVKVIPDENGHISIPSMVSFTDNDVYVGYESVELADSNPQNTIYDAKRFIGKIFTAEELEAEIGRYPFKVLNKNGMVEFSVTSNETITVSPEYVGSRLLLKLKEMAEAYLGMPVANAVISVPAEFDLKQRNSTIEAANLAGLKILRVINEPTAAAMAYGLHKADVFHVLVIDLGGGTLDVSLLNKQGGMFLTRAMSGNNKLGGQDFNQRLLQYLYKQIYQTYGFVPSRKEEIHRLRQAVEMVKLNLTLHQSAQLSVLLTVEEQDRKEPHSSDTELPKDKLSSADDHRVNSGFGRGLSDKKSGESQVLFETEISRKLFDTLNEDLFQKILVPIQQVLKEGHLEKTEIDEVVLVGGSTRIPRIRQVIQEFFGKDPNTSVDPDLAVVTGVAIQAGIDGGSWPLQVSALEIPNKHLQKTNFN

bassoon (Homo sapiens) = bassoon (Homo sapiens) (UniProt Q9UPA5)
bassoon (Homo sapiens), sequence (Q9UPA5 2-3926 limits assumed): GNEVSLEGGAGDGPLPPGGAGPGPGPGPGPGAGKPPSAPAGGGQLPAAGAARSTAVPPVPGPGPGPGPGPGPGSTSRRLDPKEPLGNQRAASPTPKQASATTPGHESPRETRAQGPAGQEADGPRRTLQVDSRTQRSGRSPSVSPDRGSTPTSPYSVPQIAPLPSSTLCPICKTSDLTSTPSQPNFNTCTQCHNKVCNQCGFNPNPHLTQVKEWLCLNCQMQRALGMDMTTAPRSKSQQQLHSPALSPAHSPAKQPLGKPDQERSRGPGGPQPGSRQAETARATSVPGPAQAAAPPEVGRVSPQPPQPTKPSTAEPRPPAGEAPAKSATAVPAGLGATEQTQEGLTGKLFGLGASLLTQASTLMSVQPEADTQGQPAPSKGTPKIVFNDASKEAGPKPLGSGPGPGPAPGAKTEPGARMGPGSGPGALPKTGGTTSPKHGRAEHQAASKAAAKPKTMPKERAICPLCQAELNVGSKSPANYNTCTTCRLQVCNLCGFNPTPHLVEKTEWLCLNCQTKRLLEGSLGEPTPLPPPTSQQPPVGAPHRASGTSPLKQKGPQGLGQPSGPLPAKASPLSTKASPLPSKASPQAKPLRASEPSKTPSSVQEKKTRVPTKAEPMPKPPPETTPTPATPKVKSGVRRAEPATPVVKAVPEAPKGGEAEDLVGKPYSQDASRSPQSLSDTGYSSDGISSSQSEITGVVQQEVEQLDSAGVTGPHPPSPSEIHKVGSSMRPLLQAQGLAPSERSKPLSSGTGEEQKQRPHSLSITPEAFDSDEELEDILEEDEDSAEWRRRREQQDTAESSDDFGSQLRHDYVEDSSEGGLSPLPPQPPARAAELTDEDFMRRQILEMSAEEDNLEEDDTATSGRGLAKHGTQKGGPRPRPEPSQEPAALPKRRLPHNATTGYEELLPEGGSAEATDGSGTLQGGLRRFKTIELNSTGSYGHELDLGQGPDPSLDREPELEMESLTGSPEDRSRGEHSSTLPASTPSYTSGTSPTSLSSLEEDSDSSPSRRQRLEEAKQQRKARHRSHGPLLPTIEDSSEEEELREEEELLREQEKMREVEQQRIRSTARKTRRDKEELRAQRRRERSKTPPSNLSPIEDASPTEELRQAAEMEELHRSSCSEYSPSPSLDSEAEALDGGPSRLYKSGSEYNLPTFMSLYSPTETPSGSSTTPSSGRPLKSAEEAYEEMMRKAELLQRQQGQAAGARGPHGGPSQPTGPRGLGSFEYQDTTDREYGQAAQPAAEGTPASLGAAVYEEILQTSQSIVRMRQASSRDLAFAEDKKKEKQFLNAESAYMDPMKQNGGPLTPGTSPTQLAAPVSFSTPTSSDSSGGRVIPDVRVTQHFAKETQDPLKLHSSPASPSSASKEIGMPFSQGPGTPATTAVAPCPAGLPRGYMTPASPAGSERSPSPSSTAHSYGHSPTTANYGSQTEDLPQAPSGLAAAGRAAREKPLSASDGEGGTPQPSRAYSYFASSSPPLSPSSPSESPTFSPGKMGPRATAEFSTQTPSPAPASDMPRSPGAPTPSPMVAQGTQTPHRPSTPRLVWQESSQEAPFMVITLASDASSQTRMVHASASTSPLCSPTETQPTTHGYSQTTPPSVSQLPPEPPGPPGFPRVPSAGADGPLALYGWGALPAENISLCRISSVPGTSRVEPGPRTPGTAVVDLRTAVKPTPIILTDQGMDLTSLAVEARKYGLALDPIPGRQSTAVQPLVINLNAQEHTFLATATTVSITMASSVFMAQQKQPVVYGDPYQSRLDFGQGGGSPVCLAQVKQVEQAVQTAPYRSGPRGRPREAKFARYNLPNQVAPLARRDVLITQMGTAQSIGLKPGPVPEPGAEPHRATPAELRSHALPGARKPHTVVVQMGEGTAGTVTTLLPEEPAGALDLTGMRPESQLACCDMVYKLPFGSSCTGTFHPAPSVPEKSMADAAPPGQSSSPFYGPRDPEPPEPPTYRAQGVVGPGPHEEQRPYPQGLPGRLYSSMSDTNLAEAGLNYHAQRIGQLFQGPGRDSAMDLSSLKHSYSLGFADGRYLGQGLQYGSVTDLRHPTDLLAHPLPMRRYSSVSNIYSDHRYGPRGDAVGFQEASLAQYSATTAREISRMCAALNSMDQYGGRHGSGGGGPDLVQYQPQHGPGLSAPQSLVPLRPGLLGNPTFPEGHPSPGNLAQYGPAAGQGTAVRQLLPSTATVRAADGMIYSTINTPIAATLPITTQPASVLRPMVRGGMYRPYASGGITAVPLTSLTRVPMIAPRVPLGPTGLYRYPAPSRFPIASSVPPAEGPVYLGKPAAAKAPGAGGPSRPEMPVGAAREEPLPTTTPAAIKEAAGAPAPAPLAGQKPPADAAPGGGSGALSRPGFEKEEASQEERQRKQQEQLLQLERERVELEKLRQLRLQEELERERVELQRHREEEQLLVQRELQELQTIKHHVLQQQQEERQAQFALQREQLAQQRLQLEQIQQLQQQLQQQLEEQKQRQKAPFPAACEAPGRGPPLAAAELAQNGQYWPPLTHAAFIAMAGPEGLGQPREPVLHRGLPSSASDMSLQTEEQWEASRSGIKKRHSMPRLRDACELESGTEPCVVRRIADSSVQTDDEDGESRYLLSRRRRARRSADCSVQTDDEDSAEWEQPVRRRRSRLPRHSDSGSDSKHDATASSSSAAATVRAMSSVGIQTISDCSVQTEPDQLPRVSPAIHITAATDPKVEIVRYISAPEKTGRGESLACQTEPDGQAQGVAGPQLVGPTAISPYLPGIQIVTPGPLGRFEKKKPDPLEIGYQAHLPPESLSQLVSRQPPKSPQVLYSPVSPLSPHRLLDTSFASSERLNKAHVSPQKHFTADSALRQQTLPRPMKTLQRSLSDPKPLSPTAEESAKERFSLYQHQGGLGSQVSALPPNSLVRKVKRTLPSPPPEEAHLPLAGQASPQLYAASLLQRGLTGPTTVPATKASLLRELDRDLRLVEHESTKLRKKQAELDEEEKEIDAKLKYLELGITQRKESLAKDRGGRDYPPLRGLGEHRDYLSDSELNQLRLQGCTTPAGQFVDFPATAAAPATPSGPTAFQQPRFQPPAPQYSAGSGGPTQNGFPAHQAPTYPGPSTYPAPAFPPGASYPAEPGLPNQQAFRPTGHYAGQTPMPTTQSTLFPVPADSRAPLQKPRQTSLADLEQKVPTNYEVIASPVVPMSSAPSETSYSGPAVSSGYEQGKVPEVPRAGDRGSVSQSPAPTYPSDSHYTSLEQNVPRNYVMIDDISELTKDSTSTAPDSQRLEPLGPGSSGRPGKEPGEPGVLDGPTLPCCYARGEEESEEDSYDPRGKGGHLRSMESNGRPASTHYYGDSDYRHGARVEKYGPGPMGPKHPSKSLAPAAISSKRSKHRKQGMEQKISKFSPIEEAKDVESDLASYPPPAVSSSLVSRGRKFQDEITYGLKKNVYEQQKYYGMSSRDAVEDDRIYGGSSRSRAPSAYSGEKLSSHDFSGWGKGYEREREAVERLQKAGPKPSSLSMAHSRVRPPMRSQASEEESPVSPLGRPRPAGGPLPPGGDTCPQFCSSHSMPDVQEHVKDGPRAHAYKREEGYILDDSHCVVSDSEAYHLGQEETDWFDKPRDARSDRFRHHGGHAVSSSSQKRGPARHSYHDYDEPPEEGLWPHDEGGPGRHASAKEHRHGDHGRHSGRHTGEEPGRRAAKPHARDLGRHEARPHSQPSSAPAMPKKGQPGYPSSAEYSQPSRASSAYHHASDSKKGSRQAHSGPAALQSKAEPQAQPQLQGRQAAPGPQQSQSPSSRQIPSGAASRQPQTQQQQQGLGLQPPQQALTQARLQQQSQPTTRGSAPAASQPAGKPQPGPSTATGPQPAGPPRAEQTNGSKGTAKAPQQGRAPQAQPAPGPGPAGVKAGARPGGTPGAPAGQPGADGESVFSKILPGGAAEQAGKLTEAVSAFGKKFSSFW

[21] = biological target: DNA polymerase theta isoform 1 (Homo sapiens) (UniProt O75417)
[22] = biological target: titin isoform N2-A (Homo sapiens) (UniProt Q8WZ42)
[23] = biological target: tumor protein p53 binding protein, 2 (Homo sapiens) (UniProt Q13625)
[24] = biological target: similar to Ig alpha-2 chain C region (Homo sapiens) (UniProt P25787)
similar to Ig alpha-2 chain C region (Homo sapiens), sequence (P25787 2-234 limits assumed): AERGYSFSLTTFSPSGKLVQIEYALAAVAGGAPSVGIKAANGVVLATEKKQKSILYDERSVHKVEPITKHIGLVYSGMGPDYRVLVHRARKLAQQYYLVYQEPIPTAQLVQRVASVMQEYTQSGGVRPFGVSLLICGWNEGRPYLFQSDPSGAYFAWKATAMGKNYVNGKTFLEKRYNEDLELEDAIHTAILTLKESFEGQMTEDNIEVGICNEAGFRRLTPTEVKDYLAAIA

[25] = biological target: hypothetical protein FLJ35834 (Homo sapiens)
[26] = biological target: complement component 4B proprotein (Homo sapiens) (UniProt P0C0L5)
[27] = biological target: dynein, cytoplasmic, heavy polypeptide 2 (Homo sapiens) (UniProt Q8NCM8)
[28] = biological target: alpha 1 type IX collagen isoform 1 precursor (Homo sapiens) (UniProt P20849)
[29] = biological target: extra spindle poles like 1 (Homo sapiens) (UniProt Q14674)
[30] = biological target: v-raf murine sarcoma 3611 viral oncogene homolog 1 (Homo sapiens) (UniProt P10398)
[31] = biological target: leucine-rich repeat-containing G protein-coupled receptor 6 (Homo sapiens) (UniProt Q9HBX8)
[32] = biological target: similar to ataxin 2 binding protein 1 isoform gamma (Homo sapiens)

GroEL having Aspartate 490 substituted with Cysteine, biotinylated and conjugated onto NeutrAvidin beads, sequence (A1AJ51 whole entry D490C): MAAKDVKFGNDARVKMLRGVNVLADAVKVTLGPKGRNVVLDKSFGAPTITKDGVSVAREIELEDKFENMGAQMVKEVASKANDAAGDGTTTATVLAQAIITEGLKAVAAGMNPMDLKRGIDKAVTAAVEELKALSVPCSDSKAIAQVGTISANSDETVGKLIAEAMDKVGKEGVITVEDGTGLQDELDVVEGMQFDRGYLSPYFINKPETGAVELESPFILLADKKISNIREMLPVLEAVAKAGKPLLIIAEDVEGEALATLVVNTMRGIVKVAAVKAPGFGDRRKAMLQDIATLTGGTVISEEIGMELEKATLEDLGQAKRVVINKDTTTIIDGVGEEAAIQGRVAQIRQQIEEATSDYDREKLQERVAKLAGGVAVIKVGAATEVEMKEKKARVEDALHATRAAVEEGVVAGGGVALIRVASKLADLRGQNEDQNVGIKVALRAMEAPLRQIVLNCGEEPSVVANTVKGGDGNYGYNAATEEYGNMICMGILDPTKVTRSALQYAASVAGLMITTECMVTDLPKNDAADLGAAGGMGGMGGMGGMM

GroEL having Aspartate 490 substituted with Cysteine, biotinylated and conjugated onto NeutrAvidin beads (from UniProt A1AJ51 1-548)
Spectrum Count [1]: 14 count
Spectrum Count [2]: 28 count
Spectrum Count [3]: 13 count
Spectrum Count [4]: 12 count
Spectrum Count [5]: 17 count
Spectrum Count [6]: 34 count
Spectrum Count [7]: 16 count
Spectrum Count [8]: 13 count
Spectrum Count [9]: 9 count
Spectrum Count [10]: 35 count
Spectrum Count [11]: 11 count
Spectrum Count [12]: 43 count
Spectrum Count [13]: 15 count
Spectrum Count [14]: 14 count
Spectrum Count [15]: 43 count
Spectrum Count [16]: 22 count
Spectrum Count [17]: 21 count
Spectrum Count (hemopexin (Homo sapiens)): 35 count
Spectrum Count [18]: 11 count
Spectrum Count [19]: 20 count
Spectrum Count [20]: 12 count
Spectrum Count (bassoon (Homo sapiens)): 12 count
Spectrum Count [21]: 24 count
Spectrum Count [22]: 16 count
Spectrum Count [23]: 9 count
Spectrum Count [24]: 19 count
Spectrum Count [25]: 9 count
Spectrum Count [26]: 11 count
Spectrum Count [27]: 10 count
Spectrum Count [28]: 10 count
Spectrum Count [29]: 9 count
Spectrum Count [30]: 13 count
Spectrum Count [31]: 9 count
Spectrum Count [32]: 11 count

Source: US20090093061A1
